Publication PMC5526978

Molecular target: GCSF-Fc (human granulocyte colony-stimulating factor fused with the IgG1 Fc domain at the C-terminus) (UniProt P09919)
Assay: non-reducing SDS-PAGE; purified GCSF-Fc run under reducing and non-reducing conditions, 10% SDS-PAGE

GCSF-Fc (human granulocyte colony-stimulating factor fused with the IgG1 Fc domain at the C-terminus) (from UniProt P09919-2 31-204) (Fc fusion)
stoichiometry N: 2
